Biological target: Cyno Gal-3 (Macaca fascicularis)
Assay: SPR; kinetic fit, which the text calls poor for the monkey sample; immobilised partner and concentrations not given

- Kd: 64.1 nM
B1: SIF001 (antibody, V domains shown)
VH: QVQLVQSGSELKKPGASVKVSCKASGYTFTNYGMNWVRQAPGQGLEWMGWINTYTGEPTYADDFKGRFVFSLDTSVSTAYLQISSLKNEDMAVYFCARYAMDYWGQGTLVTVSS
VL: EAVVTQEPSLTVSPGGTVTLTCRSSTGAVTTSNYANWVQQKPGQAFTGLIGGTSNRAPGTPARFSGSLLGDKAALTLLGAQPEDEAEYFCALWYSTHYVFGGGTKLTVL
